Data from doi:10.1101/2023.06.15.545135, “Structure of mechanically activated ion channel OSCA2.3 reveals mobile elements in the transmembrane domain” (bioRxiv, 2023).

What was measured:
[1] = molecular target: Arabidopsis thaliana OSCA1.2 (Arabidopsis thaliana) (UniProt Q5XEZ5); assay: cryo-EM structure; OSCA1.2 reconstituted in peptidiscs, ~8 mg/mL; 2.8 Å map, C2 symmetry imposed
[2] = molecular target: the molecule itself; assay: cryo-EM structure; OSCA2.3 reconstituted in peptidiscs, ~3.6 mg/mL, TBS with 2 mM DTT; 2.7 Å map, C2 symmetry imposed
[3] = molecular target: the molecule itself; assay: cryo-EM structure; OSCA1.2 reconstituted in peptidiscs, ~8 mg/mL; 2.8 Å map, C2 symmetry imposed

**Q.** For NSPr peptide (peptidisc peptide), which stoichiometry N [1] is on record?
**A.** 4 per protomer

B1: Arabidopsis thaliana OSCA2.3 (natural protein, UniProt Q8GUH7 1-703, looked up)
chain: MLLSALLTSVGINLGLCFLFFTLYSILRKQPSNVTVYGPRLVKKDGKSQQSNEFNLERLLPTAGWVKRALEPTNDEILSNLGLDALVFIRVFVFSIRVFSFASVVGIFILLPVNYMGTEFEEFFDLPKKSMDNFSISNVNDGSNKLWIHFCAIYIFTAVVCSLLYYEHKYILTKRIAHLYSSKPQPQEFTVLVSGVPLVSGNSISETVENFFREYHSSSYLSHIVVHRTDKLKVLMNDAEKLYKKLTRVKSGSISRQKSRWGGFLGMFGNNVDVVDHYQKKLDKLEDDMRLKQSLLAGEEVPAAFVSFRTRHGAAIATNIQQGIDPTQWLTEAAPEPEDVHWPFFTASFVRRWISNVVVLVAFVALLILYIVPVVLVQGLANLHQLETWFPFLKGILNMKIVSQVITGYLPSLIFQLFLLIVPPIMLLLSSMQGFISHSQIEKSACIKLLIFTVWNSFFANVLSGSALYRVNVFLEPKTIPRVLAAAVPAQASFFVSYVVTSGWTGLSSEILRLVPLLWSFITKLFGKEDDKEFEVPSTPFCQEIPRILFFGLLGITYFFLSPLILPFLLVYYCLGYIIYRNQLLNVYAAKYETGGKFWPIVHSYTIFSLVLMHIIAVGLFGLKELPVASSLTIPLPVLTVLFSIYCQRRFLPNFKSYPTQCLVNKDKADEREQNMSEFYSELVVAYRDPALSASQDSRDISP
notes: OSCA2.3 of Arabidopsis thaliana, UniProt Q8GUH7, full-length, human codon optimized cDNA; 703 residues as printed; C-terminal PreScission Protease site with 4-5 residue linkers before the tags; After PreScission cleavage, remnants of the linker and of the cleavage site stay at the C-terminus; Final model holds residues 3-26, 65-115, 129-225, 302-368, 410-517 and 536-691; also called AtOSCA2.3; …
**Q.** Which “stoichiometry N” value [2] does the source give for B1 here?
**A.** 2

B2: Arabidopsis thaliana OSCA1.2 (natural protein)
chain: MATLQDIGVSAGINILSAFVFFIIFAVLRLQPFNDRVYFSKWYLKGLRSSPARGGAFAQRFVNLDFRSYMKFLNWMPEALKMPEPELIDHAGLDSVVYLRIYWLGLKIFTPIAVLAWAVLVPVNWTNNTLEMAKQLRNVTSSDIDKLSVSNIPEYSMRFWTHIVMAYAFTIWTCYVLMKEYETIANMRLQFVASEARRPDQFTVLVRNVPPDADESVSELVEHFFLVNHPDHYLTHQVVCNANKLADLVKKKKKLQNWLDYYQLKYARNNSQRIMVKLGFLGLWGQKVDAIEHYIAEIDKISKEISKEREEVVNDPKAIMPAAFVSFKTRWAAAVCAQTQQTRNPTQWLTEWAPEPRDVFWSNLAIPYVSLTVRRLIMHVAFFFLTFFFIVPIAFVQSLATIEGIVKAAPFLKFIVDDKFMKSVIQGFLPGIALKLFLAFLPSILMIMSKFEGFTSISSLERRAAFRYYIFNLVNVFLASVIAGAAFEQLNSFLNQSANQIPKTIGVAIPMKATFFITYIMVDGWAGVAGEILMLKPLIMFHLKNAFLVKTDKDREEAMDPGSIGFNTGEPRIQLYFLLGLVYAPVTPMLLPFILVFFALAYIVYRHQIINVYNQEYESAAAFWPDVHGRVIAALVISQLLLMGLLGTKHAALAAPFLIALPVLTIGFHHFCKGRYEPAFIRYPLQEAMMKDTLETAREPNLNLKGYLQNAYVHPVFKGDEDDYDIDDKLGKFEDEAIIVPTKRQSRRNTPAPSIISGDDSPSLPFSGKLV
notes: OSCA1.2 of Arabidopsis thaliana, UniProt Q5XEZ5; Final model holds residues 2-50, 71-121, 157-266, 290-487, 505-648, 654-718; also called AtOSCA1.2
**Q.** Does B2 bind [3]?
**A.** binds
